From patent US20240301086A1 (APTEVO RESEARCH AND DEVELOPMENT, published 2024)

What was measured:
human Fcγ receptor I = human Fcγ receptor I (human, UniProt P12314 16-288); assay: SPR (Biacore T200), construct amine-coupled, Fcγ receptor as analyte
Method: (§1) The Fc region incorporated into anti-PSMA bispecific constructs contained mutations intended to reduce or abolish binding to common human and cynomolgus Fc gamma receptors. SPR experiments were conducted at 25° C. in HBS-EP+ with 0.2% BSA buffer on a Biacore T200 system to evaluate the impact of these mutations on binding. For these experiments, three flow cells of a CM5 sensor chip were immobilized with anti-PSMA bispecifics by standard amine coupling to a response level of ˜2000 RU. A blank immobilization was performed on flow cell #1 for purposes of background signal subtraction. Both human and cynomolgus monkey Fcγ receptors (purchased from R&D Systems) were diluted in HBS-EP+ with 0.2% BSA to 4-6 μM and then flowed as analytes at 30 μL/min for 120 seconds followed by a 240 second dissociation step. No regeneration step was required. Blank-subtracted sensorgrams were visually inspected for binding to each of the Fcγ receptor proteins. […] Attenuated binding to Fcγ receptors IIA (both polymorphic variants) and IIB/C was observed. PSMA01107 and PSMA01108 share the same Fc amino acid sequence and therefore equivalent Fcγ receptor binding behavior was expected.

[1] = molecular target: human Fcγ receptor IIIA, V176 variant (human, UniProt P08637 17-208); assay: as above
Method: as §1

[2] = molecular target: human Fcγ receptor IIIA, F176 variant (human, UniProt P08637 17-208); assay: as above
Method: as §1

human Fcγ receptor IIIB = human Fcγ receptor IIIB (human, UniProt O75015 17-200); assay: as above
Method: as §1

[3] = molecular target: T1, cynomolgus Fcγ receptor III (cynomolgus monkey, UniProt Q8SPW2 17-208); assay: SPR (Biacore T200), construct amine-coupled, soluble cyno Fcγ receptor as analyte
T1 construct: Called recombinant, soluble; also called Cyno RIII
Method: as §1

[4] = molecular target: T2, Full-length Human PSMA (TSC435), on cells (human, UniProt Q04609 1-750); assay: flow cytometry on C4-2B cells, PE goat anti-human IgG Fc secondary, MFI (median)
T2 construct: also called CHOK1SV/huPSMA; PSMA on C4-2B, 22RV1, LNCaP, MDA-PCa-2b cells
Method: (§2) Constructs were initially tested in CD3ε and PSMA binding assays on Jurkat and C4-2B cells. Cells were labelled at approximately 100,000 cells per well, in 96-well plates, with serial dilutions of bispecific constructs ranging in concentration from of 0.1 to 300 nM, for 30 min on ice. Primary label was followed by washes and incubation with PE-labeled minimum cross species reactive secondary antibody, goat anti-human IgG Fcγ, F(ab′)2 (Jackson Laboratory) for 30 minutes on ice. Washes and incubation were done in staining buffer (PBS with 0.2% BSA and 2 mM EDTA). Cells were collected using an BD™ LSRII or a BD FACSymphony™ flow cytometer (BD Biosciences) and analyzed by FlowJo flow cytometry analysis software. Median fluorescence intensity (MFI) of bound molecules on cells was determined after exclusion of doublets. Results were plotted and nonlinear regression analysis to determine EC50 values was performed using GraphPad Prism 7© graphing and statistics software.

[5] = molecular target: T2, Full-length Human PSMA (TSC435), on …; assay: as above; remark: listed apart in the source
Method: as §2

[6] = molecular target: T3, human CD3ε in the TCR/CD3 complex on Jurkat cells (human, UniProt P07766 23-207); assay: flow cytometry on Jurkat cells, PE goat anti-human IgG Fc secondary, MFI (median)
T3 construct: whole, on cells; On the cells it stands in the whole TCR/CD3 complex; also called CD3 (+) cells; CD3-expressing Jurkat cells
Method: as §2

[7] = molecular target: T3, human CD3ε in the TCR/CD3 complex on …; assay: as above; remark: listed apart in the source
Method: as §2

[8] = molecular target: T3, human CD3ε in the TCR/CD3 complex on …; assay: flow cytometry, drawn table 'On- Cell Binding Parameters', row 'Human CD3 binding affinity'
Method: as §2

[9] = molecular target: T2, Full-length Human PSMA (TSC435), on …; assay: flow cytometry, drawn table 'On- Cell Binding Parameters', row 'Human PSMA binding affinity'
[10] = molecular target: T4, Full-length cynomolgus monkey PSMA (TSC308), on cells (cynomolgus monkey, UniProt Q04609 1-750 (human entry)); assay: flow cytometry on CHO-CynoPSMA cells, Median (PE); drawn table row 'Cyno PSMA binding affinity'
T4 construct: also called cyno PSMA; CHOK1SV/cynoPSMA
T4 chain: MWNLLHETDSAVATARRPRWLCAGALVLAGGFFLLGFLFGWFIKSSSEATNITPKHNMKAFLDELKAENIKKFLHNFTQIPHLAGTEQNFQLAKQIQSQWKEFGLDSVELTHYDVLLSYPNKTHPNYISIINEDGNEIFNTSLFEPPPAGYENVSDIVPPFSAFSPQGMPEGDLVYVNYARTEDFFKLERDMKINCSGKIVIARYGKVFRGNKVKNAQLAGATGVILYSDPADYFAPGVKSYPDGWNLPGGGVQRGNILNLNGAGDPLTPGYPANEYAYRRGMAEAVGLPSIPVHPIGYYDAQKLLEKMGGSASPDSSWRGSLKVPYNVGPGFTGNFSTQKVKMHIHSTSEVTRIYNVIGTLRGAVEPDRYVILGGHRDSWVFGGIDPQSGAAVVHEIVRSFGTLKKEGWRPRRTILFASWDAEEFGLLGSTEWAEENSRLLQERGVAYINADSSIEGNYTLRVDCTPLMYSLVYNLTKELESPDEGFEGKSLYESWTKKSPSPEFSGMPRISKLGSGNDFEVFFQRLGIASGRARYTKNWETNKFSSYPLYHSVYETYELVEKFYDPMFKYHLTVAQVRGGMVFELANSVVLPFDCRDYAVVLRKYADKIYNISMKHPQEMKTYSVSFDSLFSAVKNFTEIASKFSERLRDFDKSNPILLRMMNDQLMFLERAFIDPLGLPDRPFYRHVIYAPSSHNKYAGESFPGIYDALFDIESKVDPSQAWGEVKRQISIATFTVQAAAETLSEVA

T3 sequence (P07766 23-207, one chain of several): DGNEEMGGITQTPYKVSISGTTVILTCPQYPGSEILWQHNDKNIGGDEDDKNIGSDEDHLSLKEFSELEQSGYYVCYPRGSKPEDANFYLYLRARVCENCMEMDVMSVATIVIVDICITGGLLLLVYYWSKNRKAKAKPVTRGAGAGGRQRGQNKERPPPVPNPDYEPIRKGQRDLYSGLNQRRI
T1 sequence (Q8SPW2 17-208): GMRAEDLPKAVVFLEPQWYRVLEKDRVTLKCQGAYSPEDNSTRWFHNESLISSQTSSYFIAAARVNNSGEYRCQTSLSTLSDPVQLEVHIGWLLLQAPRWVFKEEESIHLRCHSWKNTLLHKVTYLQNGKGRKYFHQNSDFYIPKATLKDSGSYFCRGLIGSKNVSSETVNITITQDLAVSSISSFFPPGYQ
Chain of human Fcγ receptor IIIB (O75015 17-200): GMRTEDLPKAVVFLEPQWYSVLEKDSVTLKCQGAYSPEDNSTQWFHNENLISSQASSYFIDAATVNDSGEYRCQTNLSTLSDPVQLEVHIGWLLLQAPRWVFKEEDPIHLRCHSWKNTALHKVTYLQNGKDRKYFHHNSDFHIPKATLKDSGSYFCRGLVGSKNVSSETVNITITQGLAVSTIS
Chain of human Fcγ receptor IIIA, V176 variant (P08637 other isoform, or with tags, fused parts or gaps mutant): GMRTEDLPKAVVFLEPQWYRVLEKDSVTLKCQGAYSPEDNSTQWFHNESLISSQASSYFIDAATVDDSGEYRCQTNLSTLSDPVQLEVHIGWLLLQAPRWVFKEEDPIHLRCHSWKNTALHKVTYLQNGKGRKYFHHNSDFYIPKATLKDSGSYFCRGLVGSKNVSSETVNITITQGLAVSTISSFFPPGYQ
Chain of human Fcγ receptor I (P12314 16-288): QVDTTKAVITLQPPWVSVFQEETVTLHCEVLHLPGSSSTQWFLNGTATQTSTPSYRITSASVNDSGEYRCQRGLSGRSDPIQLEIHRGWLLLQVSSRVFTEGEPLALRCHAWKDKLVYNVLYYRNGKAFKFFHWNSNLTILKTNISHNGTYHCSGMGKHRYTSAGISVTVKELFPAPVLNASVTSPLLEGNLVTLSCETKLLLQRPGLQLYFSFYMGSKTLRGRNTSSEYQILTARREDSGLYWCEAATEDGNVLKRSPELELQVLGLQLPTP
Chain of human Fcγ receptor IIIA, F176 variant (P08637 17-208, change not shown): as the sequence (P08637 other isoform, or with tags, fused parts or gaps mutant) above, with V160F counted along it

B1: PSMA01108 Anti-PSMA scFv x Fc x linker x Anti CD3 scFv; Anti PSMA scFv x Fc (bispecific antibody)
chain 1: QVQLVQSGAEVKKPGASVKVSCKASGYTFTDYYMHWVRQAPGQGLEWMGYFNPYNDYTRYAQKFQGRVTMTRDTSTSTVYMELSSLRSEDTAVYYCARSDGYYDAMDYWGQGTTVTVSSGGGGSGGGGSGGGGSGGGGSDIQMTQSPSSLSASVGDRVTITCRASKSISKYLAWYQQKPGKAPKLLIHSGSSLESGVPSRFSGSGSGTEFTLTISSLQPDDFATYYCQQHIEYPWTFGQGTKVEIKEPKSSDKTHTCPPCPAPPAAAPSVFLFPPKPKDTLMISRTPEVTCVVVDVSHEDPEVKFNWYVDGVEVHNAKTKPREEQYNSTYRVVSVLTVLHQDWLNGKEYKCAVSNKALPAPIEKTISKAKGQPREPQVYTLPPSRDELTKNQVSLWCLVKGFYPSDIAVEWESNGQPENNYKTTPPVLDSDGSFFLYSKLTVDKSRWQQGNVFSCSVMHEALHNHYTQKSLSLSPGGGGSPSDIQMTQSPSSLSASVGDRVTITCRASSSVSYMNWYQQKPGKAPKRWIYDSSKLASGVPSRFSGSGSGTDFTLTISSLQPEDFATYYCQQWSRNPPTFGQGTKVEIKGGGGSGGGGSGGGGSGGGGSQVQLVQSGAEVKKPGASVKVSCKASGYTFTRSTMHWVRQAPGQGLEWIGYINPSSAYTNYAQKFQGRVTLTADKSTSTAYMELSSLRSEDTAVYYCASPQVHYDYNGFPYWGQGTLVTVSS
chain 2: QVQLVQSGAEVKKPGASVKVSCKASGYTFTDYYMHWVRQAPGQGLEWMGYFNPYNDYTRYAQKFQGRVTMTRDTSTSTVYMELSSLRSEDTAVYYCARSDGYYDAMDYWGQGTTVTVSSGGGGSGGGGSGGGGSGGGGSDIQMTQSPSSLSASVGDRVTITCRASKSISKYLAWYQQKPGKAPKLLIHSGSSLESGVPSRFSGSGSGTEFTLTISSLQPDDFATYYCQQHIEYPWTFGQGTKVEIKEPKSSDKTHTCPPCPAPPAAAPSVFLFPPKPKDTLMISRTPEVTCVVVDVSHEDPEVKFNWYVDGVEVHNAKTKPREEQYNSTYRVVSVLTVLHQDWLNGKEYKCAVSNKALPAPIEKTISKAKGQPREPQVYTLPPSRDELTKNQVSLSCAVKGFYPSDIAVEWESNGQPENNYKTTPPVLDSDGSFFLVSKLTVDKSRWQQGNVFSCSVMHEALHNHYTQKSLSLSPG
notes: also called PSMA1108; PSAM01108
Human Fcγ receptor I
  binding result: no binding (tested: 4-6 µM)
[1]
  binding result: no binding (tested: 4-6 µM)
[2]
  binding result: no binding (tested: 4-6 µM)
Human Fcγ receptor IIIB
  binding result: no binding (tested: 4-6 µM)
[3]
  binding result: no binding (tested: 4-6 µM)
[4]
  EC50: 1 nM
[5]
  EC50: 1 nM
[6]
  EC50: > 210 nM
[7]
  EC50: > 200 nM
[8]
  EC50: > 200 nM
  Max: 409
[9]
  EC50: 1 nM
  Max: 2500
[10]
  EC50: 4 nM
  Max: 19500
